Patent US20210396736A1, “SCREENING ASSAY” (The University of Bath, priority 2018, published 2021)

Columns and labels:
cJun bZIP = molecular target: T1, cJun bZIP (Homo sapiens, UniProt P05412, S292Y); assay: Further TBS assay experiment, Example 3 (colony count, FIG. 3); assay type: cell-based; details: for rescue of DHFR expression / change in number of colonies compared to plate 2: co-expressed with TRE mDHFR and cJun bZIP
T1 construct: cJun with the basic region and leucine zipper (cJun bZip); expressed in transfected cells
From the text: This experiment used similar plasmids to those set out in Example 1, with the exception that pET24a was used to express both the lac repressor and test compound using a single plasmid. Specifically, three plasmids were used: i) p300d expressing the mDHFR gene modified to include 15 TREs (TRE mDHFR, generated as described in Example 1); ii) p230d expressing either the leucine zipper part of cJun (cJun LZ) or cJun with the basic region and leucine zipper (cJun bZip); iii) pET24a expressing the lac repressor and either the leucine zipper part of cFos (cFos LZ) or the acidic FosW peptide (acidic FosW).
Plates were generated as set out in the following table:
The number of colonies produced in each plate were counted and this quantification is illustrated in FIG. 3.

AP-1 = AP-1 driven luciferase gene reporter assay; assay type: cell-based, mammalian; details: transfected, versus control and dummy vector; FIG. 2
From the text: Wild-type AP-1 proteins have a long stretch of basic amino acids at the N-terminal of the protein which enables DNA binding. Acidic versions of AP-1 proteins can be generated with a long stretch of negatively charged amino acids (in place of the positive) which can serve as a DNA mimic. Acidic AP-1 peptide variants can therefore form heterodimers with wild type AP-1 proteins driven by both the dimerization motif and the negative/positive charge interaction, resulting in their sequestration from the DNA.
In order to test whether the peptides identified as being functional antagonists in the TBS assay are also likely to have the same activity in eukaryotic cells, a AP-1 driven luciferase gene reporter assay was carried out. This assay was carried out using no transfection (control), transfected dummy vector, acidic c-Jun, acidic c-Fos and library-derived peptide treated (FosW).

[1] = co-expressed with TRE mDHFR and cJun bZIP (plates 2 and 3)

T1 sequence (P05412 252-315 S292Y limits assumed): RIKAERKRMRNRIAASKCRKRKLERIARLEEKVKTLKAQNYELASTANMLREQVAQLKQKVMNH

Molecule	rescue of DHFR expression / change in number of colonies compared to plate 2 (cJun bZIP)	number of bacterial colonies (cJun bZIP; [1]) [colonies]	number of bacterial colonies (cJun bZIP; control plate 1: co-expressed with TRE mDHFR and cJun LZ (no basic DNA-binding region)) [colonies]	AP-1 driven luciferase activity (AP-1)
cFos LZ: the leucine zipper part of cFos; binds the coiled-coil region of cJun (MASTDTLQAETDQLEDEKYALQTEIANLLKEKEKLGAP)	not able to rescue expression of the DHFR protein	< 20	> 300	–
Acidic FosW: library-derived peptide able to dissociate the cJun bZIP protein from the TRE sites in TRE mDHFR (peptide) peptide: MASLEQRAEELARENEELEKEAEELEQELDELQAEIEQLEERNYALRKEIEDLQKQLEKLGAP	substantial increase in the number of colonies	> 200	–	dramatic reduction in the signal
